Assay results as given in publication PMC4539346.

Molecular target: human IgM (Calbiochem 401108) (human)
Test: SPR; IgM amine-coupled to a GLC sensor chip (about 10,000 RU, pH 5), ProteOn XP36; DBL4ζ proteins flowed at 600-18.75 nM, 25 μl/min, 25 °C, 10 mM Tris pH 7.4, 140 mM NaCl, 2 mM CaCl2, 0.005% Tween-20; 1:1 Langmuir kinetic model

Substance	Kd [µM]	koff [s⁻¹]	kon [M⁻¹ s⁻¹]
recombinant TM284var1 DBL4ζ E1663R, R1764E (his-tagged, E. coli) (domain or fragment)	0.0332	0.00159	49400
recombinant TM284var1 DBL4ζ wild type (his-tagged, E. coli) (domain or fragment)	0.0662	0.0118	179000
recombinant TM284var1 DBL4ζ R1764E (his-tagged, E. coli) (domain or fragment)	0.0416	0.00189	45100
recombinant TM284var1 DBL4ζ E1663R (his-tagged, E. coli) (domain or fragment)	0.115	0.0148	129000
recombinant TM284var1 DBL4ζ E1663R, E1665R, R1764E, E1779K (his-tagged, E. coli) (domain or fragment)	0.0412	0.00254	61600
